According to publication PMC4414354, “The Pentameric Nucleoplasmin Fold Is Present in Drosophila FKBP39 and a Large Number of Chromatin-Related Proteins” (Journal of Molecular Biology, 2015):

Assays:
[1] = target: the molecule itself; experiment: SANS; deuterated FKBP39 NPL, 2.0-10.0 mg/mL, 20 mM 4-morpholineethanesulfonic acid pH 6.0, 25 mM NaCl, 20 °C; bead model fitted with 5-fold symmetry
[2] = target: the molecule itself; experiment: SEC; S200 or S75 120-mL column in 20 mM Tris-HCl pH 8.0, 150 mM (salt not given), 2 mM β-mercaptoethanol; apparent molecular weight
[3] = target: the molecule itself; experiment: SAXS; Fpr4Δloop, 1.0-4.0 mg/mL, 50 mM Hepes pH 7.5, 100 mM NaCl, 11 °C, beamline X33 (EMBL/DESY Hamburg); P5 symmetry
[4] = target: the molecule itself; experiment: SAXS; HD2 NPL 1.0-5.0 mg/mL and FKBP39 NPL 1.0-20.0 mg/mL, 50 mM Hepes pH 7.5, 100 mM NaCl, 11 °C, ESRF BioSAXS beamline ID14eh3; FKBP39 modelled with P5, HD2 with P25 symmetry

B1: FKBP39 NPL domain (N-terminal nucleoplasmin-like domain of Drosophila FKBP39, residues 1-92) (domain or fragment, Drosophila melanogaster)
chain: QGAMAMFWGLNMKPERKYSQTIIKSFHISGVALDKGQEAKLYLAAEKQEYIVATVTKAIPQVALDLNFSKGDRIMFYTAGDASVSLLGYLHDIDSGS
notes: 3-4 additional amino acids left at the N-terminus after chymotrypsin cleavage, printed as [F]QGA: with or without the leading F; second amino acid changed from Ser to Ala for the NcoI cloning site; dipeptide from the BamHI site at the C-terminus; Deuterated or otherwise isotope-labelled samples were used for SANS and NMR; The structure was deposited at the PDB; also called N-terminal domain of …
stoichiometry N [1]: 5
stoichiometry N [2]: ~5

B2: Fpr4 NPLΔloop (S. cerevisiae Fpr4 amino acids 1-168 with the β4-β5 loop deleted) (domain or fragment, Saccharomyces cerevisiae, UniProt Q06205 1-168, looked up)
chain: MSDMLPLATYSLNVEPYSPTPALNFKIPVTIRITMAAIDPEPFDDDKKPSTLRIIKRNEIDDEFEECVLLTLSPKGQYQQALDITIAPEEDVQFVVTGSYTISLTGNYVKHPF
notes: Fpr4, Saccharomyces cerevisiae, amino acids 1-58 joined to 114-168 by overlap deletion PCR; The construct contains a C-terminal unstructured tail seen in the SAXS model; also called Fpr4Δloop; Fpr4 NPL domain; source: E. coli BL21 (DE3), purified
stoichiometry N [3]: 5

B3: Arabidopsis thaliana type 2 histone deacetylase HD2 NPL domain (HD2a, amino acids 1-112) (domain or fragment, UniProt Q56WH4 1-112, looked up)
chain: MEFWGVAVTPKNATKVTPEEDSLVHISQASLDCTVKSGESVVLSVTVGGAKLVIGTLSQDKFPQISFDLVFDKEFELSHSGTKANVHFIGYKSPNIEQDDFTSSDDEDVPEA
notes: type 2 histone deacetylase (printed as HD2a), Arabidopsis thaliana, amino acids 1-112; also called Arabidopsis NPL construct; A thali; source: E. coli BL21 (DE3), purified; copies: 10
stoichiometry N [4]: 10
